Here are results for three molecules from patent publication US20230398116A1, “Agent for reversing resistance to anticancer drugs” (Y'S AC CO., LTD., priority 2020, published 2023).

Changes are numbered by the printed parent chain.

Test [1] can be described thus: Heterogeneous chronic GVHD model (NOG mice transplanted with human umbilical cord blood mononuclear cells). The test is classed as in vivo, mouse. The procedure: On day −1, NOG mice were irradiated with a sublethal dose (100 cGy). On day 0, 5×10^6 human umbilical cord blood mononuclear cells were transplanted from the tail vein of NOG mice. Survival of the mice was assessed daily and body weight was measured twice a week. In an antibody treatment experiment, the control human IgG or anti-human IL-26 monoclonal antibody (the mouse antibody m69-10 and the humanized antibody h69-10A) was administered from day +28 of transplantation when clinical signs/symptoms of mild GVHD began to appear. The antibody solution was adjusted to a concentration of 1 mg/mL with sterile PBS, and 200 μL (200 μg) of the antibody solution per mouse was intraperitoneally injected twice a week. On day +56 after transplantation, the mice were sacrificed, and the skin, lung, liver, and large intestine were collected.
NOG mice were dissected, and then the skin, lung, liver, and large intestine on the back were excised, fixed in 10% formalin solution (Wako) at room temperature, and embedded in paraffin. Thereafter, a section having a thickness of 5 μm was prepared and placed on a glass slide, and stained with hematoxylin and eosin (H&E). In addition, in order to confirm the proliferation of collagen fibers, Azan-Mallory staining was performed. Images of the optical microscope were taken with an Olympus BX41 microscope (OLYMPUS, Tokyo, Japan) connected with an Olympus digital camera DP25, and CellSens software was used.

The subject of the next test is HCC70 cells. The test is described as follows: MTT assay / cell proliferation (confluence) assay, HCC70. The test is classed as cell-based, human. As for the experimental part:
(§1) Human and mouse breast cancer cells (1×10^4) were cultured in 10% FCS containing RPMI1640 medium on a 96-well flat bottom plate (Corning, Tewksbury, MA) at 37° C. for 24 hours, and then stimulated with IL-26 for 48 hours in the presence or absence of EGFR-TKI (gefitinib or erlotinib) at various concentrations, a signal inhibitor, and a neutralizing antibody. HUVECs were seeded in a 96-well flat bottom plate at 5×10^3 cells/well in a 2% FBS-containing EGM medium in which growth factors were reduced by half, and cultured at 37° C. for 12 hours. Thereafter, the medium was aspirated, and a recombinant human IL-26 dimer was adjusted to a final concentration of 10 ng/mL in a 2% FBS-containing EGM medium containing no growth factors, and added to the cells. The stimulation was started in the presence or absence of control human IgG and anti-human IL-26 antibodies, and the cells were cultured for 48 hours. Thereafter, a concentration of 20 μl or 1/10 of a 5 mg/ml MTT solution (Tetrazolium monosodium salt, WST-8) was added to each well, and the plate was allowed to stand for 1 hour. The absorbance at 450 nm/595 nm was measured using Microplate Reader (Bio-Rad, Hercules, CA) and data was analyzed with Microplate Manager 6 software (Bio-Rad).
Human and mouse breast cancer cells (1×10^4) were cultured in RPMI1640 medium containing 10% FCS for 24 hours at 37° C. on a 96-well flat bottom plate (Corning), and then stimulated with IL-26 (30 ng/ml) in the presence or absence of various concentrations of gefitinib and a neutralizing antibody. Cell proliferation was measured as cell confluence using IncuCyte ZOOM (Essen Bioscience, Ann Arbor, MI).
(Formazan colour is commonly taken as a measure of viable cells.)

Test [2] deals with T1, IL-26 (Homo sapiens, UniProt Q9NPH9).
T1 sequence (Q9NPH9 22-171): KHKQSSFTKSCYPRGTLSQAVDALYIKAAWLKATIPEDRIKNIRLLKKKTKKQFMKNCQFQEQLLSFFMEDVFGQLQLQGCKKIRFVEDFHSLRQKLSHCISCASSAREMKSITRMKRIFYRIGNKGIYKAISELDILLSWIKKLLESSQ
The test can be described thus: ELISA of antigen binding to human IL-26. On the set-up: purchased R&D Systems 1375-IL/CF. The note with it: for EC50 values (binding to human IL-26, ELISA): plates coated with 0.5 μg/ml human IL-26 monomer, calculated using GraphPadPrism. The procedure: The antigen binding of purified Ch69-10-IgG1, Hu69-10A-IgG1, and Hu69-10B-IgG1 was analyzed by ELISA. ELISA plates were coated overnight at 4° C. with the addition of 0.5 μg/ml human IL-26 (recombinant human IL-26/AK155 monomer, Cat #1375-IL/CF, R&D Systems, Minneapolis, MN) at 100 μl/well in 0.2 M sodium carbonate buffer (pH 9.4). Wells were washed with the wash buffer and blocked with the ELISA buffer. Subsequently, 100 μl/well of test antibody (mouse 69-10, Ch69-10-IgG1, Hu69-10A-IgG1, or Hu69-10B-IgG1) serially diluted 2-fold in RPMI medium starting at 5 μg/ml was added to measure a binding with IL-26. After incubation at room temperature for 1 hour and washing the plates with a wash buffer, a 1/2,000-diluted HRP-conjugated goat anti-human kappa chain polyclonal antibody (Bethyl Laboratories) (for Ch69-10-IgG1, Hu69-10A-IgG1 and Hu69-10B-IgG1) or a 1/2,000-diluted HRP-labeled goat anti-mouse kappa chain polyclonal antibody (Bethyl Laboratories) (for mouse 69-10) in ELISA buffer was added at 100 μl/well to detect bound antibodies. After incubation at room temperature for 30 min and washing with the wash buffer, 100 μl/well of ABTS substrate (Sigma Aldrich) was added to start color development and 100 μl/well of 2% oxalic acid was added to stop the color development. The absorbance was measured at 405 nm.

Test [3] has as its target T1, IL-26. The test is described as follows: ICAM-1 expression analysis of COLO205 (neutralizing activity of IL-26). The test is classed as cell-based. Details: host or cells: added exogenously to COLO205 cells. The note with it: for inhibition of IL-26-enhanced expression of ICAM-1: COLO205, recombinant human IL-26 monomer 20 ng/mL, 24 hours, flow cytometry (MFI); for inhibitory effect on IL-26 compared with m69-10 (ICAM-1 expression): COLO205, antibody doses of 2 μg/mL and 5 μg/mL. The procedure:
COLO205 was seeded at 5×10^4 cells/well in a 96-well flat bottom plate, and stimulated with recombinant human IL-26 monomer (20 ng/mL) in the presence or absence of control human IgG or anti-human IL-26 antibody. After 24 hours of culture, the cells were collected and washed with ice-cold PBS (FCM buffer) containing 1% FBS and 0.1% sodium azide. Thereafter, a solution prepared by diluting a PE-labeled mouse anti-human ICAM-1 monoclonal antibody (clone 15.2, catalog number 50-0549-T100) of Bay bioscience (Kobe, Japan) or a PE-labeled mouse Igl,k isotype control monoclonal antibody (clone MOPC-21, catalogue number 400114) of BioLegend with FCM buffer to 5 μg/mL, was added at 50 μL/sample, and the mixture was allowed to stand at 4° C. for 25 minutes. Thereafter, the cells were washed with ice-cold FCM buffer, then measured with FACSCalibur, and the obtained data was analyzed with FlowJo.
(In general: Flow cytometry measures light scatter and fluorescence of single cells or particles in a stream.)

Test [4] addresses T1, IL-26. The test is described as follows: MTT assay of HUVECs stimulated with IL-26 (neutralizing activity of IL-26). The test is classed as cell-based. Details: purchased R&D Systems; host or cells: added exogenously to HUVECs. The settings on record: antibody dose of 3 μg/mL. As for the experimental part:
as §1

The target of another test is T2, EphA3/IL-26 interaction (Homo sapiens, UniProt Q9NPH9).
T2 construct: purchased R&D Systems; host or cells: IL-26 was purchased; EphA3 is endogenous on E0771 cells
T2 sequence (Q9NPH9 22-171): T1 sequence (Q9NPH9 22-171)
The test can be described thus: Immunofluorescence of rhIL-26-Alexa 488 and cell surface EphA3 on E0771 cells. The test is classed as cell-based, mouse. The settings on record: E0771, antibodies 10 μg/ml, FIGS. 19 and 20. The procedure: (§2) E0771 and HCC70 cells (1×10^5) were cultured for 24 hours in RPMI1640 medium with 10% FCS on Lab-Tek chamber slides (Thermo Fisher Scientific). The cultured cells were stimulated with Alexa Fluor 488 labeled IL-26 (30 ng/ml) in the presence or absence of recombinant human and mouse EphA3-Ig for 1 hour. HCC70 cells were stimulated with IL-26 (30 ng/ml) in the presence or absence of gefitinib (40 μM), a signal inhibitor, and a neutralizing antibody for 24 hours. Subcutaneous tumor samples obtained from mice were fixed in 4% paraformaldehyde (Thermo Fisher Scientific) and embedded in OCT compound (Tissue-Tek (registered trademark), Sakura Finetek, Japan). Cells and slides were immunostained with each antibody and observed using a Zeiss inverted microscope and Axiovision 2.0 program (Carl Zeiss, Germany). The fluorescence intensity was quantified with Image-J software (NIH). The images were captured using a 100×400× objective.

In test [5] the target is T3, interaction between IL-26 and EphA3 (Homo sapiens, UniProt Q9NPH9).
T3 construct: purchased R&D Systems; host or cells: IL-26 was purchased; EphA3 is endogenous on HCC70 cells
T3 sequence (Q9NPH9 22-171): T1 sequence (Q9NPH9 22-171)
The test can be described thus: Immunofluorescence of rhIL-26-Alexa488 and cell surface EphA3 on HCC70 cells. The test is classed as cell-based. The settings on record: HCC70, rhIL-26-Alexa488 30 ng/ml, 50 μg/ml each, 1 hour, FIG. 21. As for the experimental part: as §2

Setting [6] is: 200 μg per mouse i.p. twice a week from day 28, data not shown.

B1: Hu69-10A-IgG1: humanized 69-10 IgG1/kappa antibody expressed by pHu69-10A (Hu69-10VH1 and Hu69-10VL1) (antibody, V domains shown)
VH: QVTLKESGPALVKPTQTLTLTCTFSGFSLSTSGMGVGWIRQPPGKALEWLAHIWWDDDKYYNPSLKSQLTISKDTSKNQVVLTMTNMDPVDTATYYCVRGGITATHYYAMDYWGQGTTVTVSS
VL: DIQMTQSPSSLSASVGDRVTITCLASQTIGTWLSWYQQKPGKAPKLLIYAATSLADGVPSRFSGSGSGTKFTFTISSLQPEDIATYYCQQLYSSPWTFGGGTKVEIK
In the case of B1, in test [1] (setting [6]), the body weight loss result is “clearly reduced” and the “number of survival days” value was “significantly prolonged”. The “therapeutic effect compared with m69-10” value in test [1] (FIG. 60) is given as “higher therapeutic effect than the original mouse antibody m69-10”. In addition, the “reversal of inhibitory effect of IL-26 on gefitinib-induced suppression of cell proliferation” value in the test on HCC70 cells (HCC70, IL-26 30 ng/ml, gefitinib 40 μM, 48 hours, MTT, FIG. 59) is listed as “reversed the inhibitory effect of IL-26 on gefitinib-induced suppression of cell proliferation in an antibody dose-dependent manner”. Moreover, in the test with HCC70 cells (antibody doses of 5 μg/mL and 20 μg/mL), the “inhibitory effect on IL-26 compared with m69-10 (HCC70 proliferation)” value is on record as “significantly higher inhibitory effect on IL-26 than the original mouse antibody m69-10”. The “EC50 values (binding to human IL-26, ELISA)” value with IL-26 [2] is 0.304 µg/mL. The “binding to IL-26 (absorption value)” value with IL-26 [2] (recombinant human IL-26 immobilized on a plate, FIG. 56) is reported as “stronger binding to IL-26 than an original mouse antibody m69-10”. In the test with IL-26 [3], the “inhibition of IL-26-enhanced expression of ICAM-1” value was “partially inhibited” and the “inhibitory effect on IL-26 compared with m69-10 (ICAM-1 expression)” value is “significantly higher inhibitory effect on IL-26 than the original mouse antibody m69-10”. Further, in the test with IL-26 [4], the “inhibitory effect on IL-26 compared with m69-10 (HUVEC proliferation)” value is “significantly higher inhibitory effect on IL-26 than the original mouse antibody m69-10”.

B2: Hu69-10B-IgG1: humanized 69-10 IgG1/kappa antibody expressed by pHu69-10B (Hu69-10VH1 and Hu69-10VL2) (antibody, V domains shown)
VH: B1 VH
VL: B1 VL with K70D
On to B2, for which, in the test with IL-26 [2], the “EC50 values (binding to human IL-26, ELISA)” value was 0.396 µg/mL. Also, in the test with IL-26 [3], the “inhibition of IL-26-enhanced expression of ICAM-1” value is recorded as “partially inhibited” and the “inhibitory effect on IL-26 compared with m69-10 (ICAM-1 expression)” value is “significantly higher inhibitory effect on IL-26 than the original mouse antibody m69-10”. The “inhibitory effect on IL-26 compared with m69-10 (HUVEC proliferation)” value with IL-26 [4] is “significantly higher inhibitory effect on IL-26 than the original mouse antibody m69-10”.

B3: rhEphA3-Ig: recombinant human EphA3 Fc chimeric protein purchased from R&D Systems (protein)
chain: ELIPQPSNEVNLLDSKTIQGELGWISYPSHGWEEISGVDEHYTPIRTYQVCNVMDHSQNNWLRTNWVPRNSAQKIYVELKFTLRDCNSIPLVLGTCKETFNLYYMESDDDHGVKFREHQFTKIDTIAADESFTQMDLGDRILKLNTEIREVGPVNKKGFYLAFQDVGACVALVSVRVYFKKCPFTVKNLAMFPDTVPMDSQSLVEVRGSCVNNSKEEDPPRMYCSTEGEWLVPIGKCSCNAGYEERGFMCQACRPGFYKALDGNMKCAKCPPHSSTQEDGSMNCRCENNYFRADKDPPSMACTRPPSSPRNVISNINETSVILDWSWPLDTGGRKDVTFNIICKKCGWNIKQCEPCSPNVRFLPRQFGLTNTTVTVTDLLAHTNYTFEIDAVNGVSELSSPPRQFAAVSITTNQAAPSPVLTIKKDRTSRNSISLSWQEPEHPNGIILDYEVKYYEKQEQETSYTILRARGTNVTISSLKPDTIYVFQIRARTAAGYGTNSRKFEFETSPDSFSISGESSQ
modifications: left off: a dimerising Fc or GST
notes: recombinant human EphA3 Fc chimeric protein purchased from R&D Systems
As for B3, the “blocking of inhibitory effect of IL-26 on suppression of cell proliferation by gefitinib” value in the test on HCC70 cells (HCC70, IL-26 30 ng/ml, gefitinib 40 μM, 48 hours, Abs or rhEphA3-Ig 50 μg/ml each, MTT, FIG. 22) is recorded as “potently blocked the inhibitory effect of IL-26 on suppression of cell proliferation by gefitinib”. Moreover, the “inhibition of colocalization of IL-26 with EphA3 (EphA3/IL-26 interaction)” value in the test with EphA3/IL-26 interaction is “inhibited EphA3/IL-26 interaction”. Also, the “inhibition of interaction between IL-26 and EphA3” value in test [5] is “clearly inhibited the interaction between IL-26 and EphA3”.
